Measured values as given in EP2717940B1.

Assays:
[1] = biological target: T1, chemokine (C-C motif) receptor 1 (CCR1) (human) (UniProt P32246); assay: in vitro depletion: blood of a healthy donor passed through a column with biotinylated RANTES coupled matrix, flow cytometry for CCR1, 3 or 5-expressing cells
T1 sequence (looked up): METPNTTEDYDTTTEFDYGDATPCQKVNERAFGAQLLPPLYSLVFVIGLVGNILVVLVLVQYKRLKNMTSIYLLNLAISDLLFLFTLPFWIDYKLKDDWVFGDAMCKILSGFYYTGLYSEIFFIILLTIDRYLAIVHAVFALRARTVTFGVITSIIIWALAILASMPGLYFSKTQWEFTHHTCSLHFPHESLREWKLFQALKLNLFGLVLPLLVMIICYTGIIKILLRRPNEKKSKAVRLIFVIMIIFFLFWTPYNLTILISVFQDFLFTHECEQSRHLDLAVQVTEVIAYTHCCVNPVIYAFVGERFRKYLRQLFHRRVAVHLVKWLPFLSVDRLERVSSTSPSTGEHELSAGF

[2] = biological target: T2, chemokine (C-C motif) receptor 3 (CCR3) (human) (UniProt P51677); assay: as above
T2 sequence (looked up): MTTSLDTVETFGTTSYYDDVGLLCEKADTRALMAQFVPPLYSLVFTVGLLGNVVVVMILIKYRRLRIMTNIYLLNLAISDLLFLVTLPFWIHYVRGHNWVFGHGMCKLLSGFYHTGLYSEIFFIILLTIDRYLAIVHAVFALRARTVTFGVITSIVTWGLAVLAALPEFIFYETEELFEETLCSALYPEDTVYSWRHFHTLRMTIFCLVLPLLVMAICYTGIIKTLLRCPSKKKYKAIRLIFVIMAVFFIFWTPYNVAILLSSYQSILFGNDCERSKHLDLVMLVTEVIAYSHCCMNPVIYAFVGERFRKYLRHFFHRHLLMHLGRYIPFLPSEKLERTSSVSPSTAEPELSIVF

[3] = biological target: chemokine (C-C motif) receptor 5 (CCR5) (human) (UniProt P51681); assay: as above
chemokine (C-C motif) receptor 5 (CCR5) (human), sequence (P51681 whole entry): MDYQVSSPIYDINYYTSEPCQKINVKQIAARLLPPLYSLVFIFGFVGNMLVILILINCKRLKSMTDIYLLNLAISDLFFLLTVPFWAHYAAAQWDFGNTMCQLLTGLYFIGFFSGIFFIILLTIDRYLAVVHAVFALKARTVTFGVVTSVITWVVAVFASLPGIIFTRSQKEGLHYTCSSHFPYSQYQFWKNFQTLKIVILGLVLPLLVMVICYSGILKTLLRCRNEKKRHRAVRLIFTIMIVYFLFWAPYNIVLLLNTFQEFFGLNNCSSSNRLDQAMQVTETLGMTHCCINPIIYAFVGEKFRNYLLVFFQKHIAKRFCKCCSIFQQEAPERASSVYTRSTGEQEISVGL

[4] = biological target: chemokine (C-C motif) receptor 5 (CCR5) (human) (UniProt P51681); assay: cell-based or functional assay
[5] = biological target: chemokine (C-C motif) receptor 2 (CCR2) on peripheral blood cells (human) (UniProt P41597); assay: in vitro depletion: blood of three healthy donors passed through a column with bMCP-1 coupled streptavidin Sepharose matrix, flow cytometry before and after
chemokine (C-C motif) receptor 2 (CCR2) on peripheral blood cells (human), sequence (P41597 whole entry): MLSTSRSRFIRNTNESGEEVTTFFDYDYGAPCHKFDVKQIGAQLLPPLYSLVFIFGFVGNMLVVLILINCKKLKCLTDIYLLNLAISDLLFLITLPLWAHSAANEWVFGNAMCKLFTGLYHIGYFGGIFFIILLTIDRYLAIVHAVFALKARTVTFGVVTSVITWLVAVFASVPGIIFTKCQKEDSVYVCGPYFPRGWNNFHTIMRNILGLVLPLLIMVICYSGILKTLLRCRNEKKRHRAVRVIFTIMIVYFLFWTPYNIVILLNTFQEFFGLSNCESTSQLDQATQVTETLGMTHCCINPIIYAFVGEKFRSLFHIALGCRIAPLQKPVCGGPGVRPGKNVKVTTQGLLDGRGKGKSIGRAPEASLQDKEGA

[6] = biological target: chemokine (C-C motif) receptor 2 (CCR2) on peripheral blood cells (human) (UniProt P41597); assay: flow cytometry, biotinylated chemokine (1 µM) on blood cells of adiposis dolorosa patients, CD19 positive cells, detected with fluorophore conjugated streptavidin
[7] = biological target: hCCR2b (human) (UniProt P41597); assay: cell-based or functional assay
hCCR2b (human), sequence (P41597 other isoform, or with tags, fused parts or gaps): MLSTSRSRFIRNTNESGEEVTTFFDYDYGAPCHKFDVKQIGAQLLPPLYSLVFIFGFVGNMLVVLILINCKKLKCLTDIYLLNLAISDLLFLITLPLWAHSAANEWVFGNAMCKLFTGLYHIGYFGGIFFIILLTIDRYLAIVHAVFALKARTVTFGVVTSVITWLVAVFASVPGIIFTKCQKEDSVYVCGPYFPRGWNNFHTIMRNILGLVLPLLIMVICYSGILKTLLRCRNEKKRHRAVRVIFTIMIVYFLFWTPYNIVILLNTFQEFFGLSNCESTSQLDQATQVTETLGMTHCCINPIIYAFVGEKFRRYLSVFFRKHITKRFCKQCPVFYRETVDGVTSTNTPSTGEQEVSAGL

UniProt P13501, sequence (P13501 other isoform, or with tags, fused parts or gaps): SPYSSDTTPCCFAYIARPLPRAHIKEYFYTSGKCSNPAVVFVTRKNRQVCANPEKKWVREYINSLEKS

Substance: biotinRANTES (CCL5): RANTES derivatised at the ε-amino side chain functionality of Lys(67) with Biotin (TFA salt) (from UniProt P13501 24-91) (ligand)
- reduction of chemokine receptor-expressing cells by the column [1]: 20%
- reduction of chemokine receptor-expressing cells by the column [2]: 20%
- reduction of chemokine receptor-expressing cells by the column [3]: 20%
- EC50, agonist activity in an Aequorin assay [4]: 0.5 nM

Substance: biotinylated MCP1 (bMCP1) (from UniProt P13500 24-99) (ligand)
- remaining levels of monocytes after column passage [5]: 20 to 30%
- percent of B cells that bind [6]: 65%

Substance: recombinant native MCP-1 (from UniProt P13500 24-99) (ligand)
- EC50, agonist activity in an Aequorin assay [7]: 3.1 nM

Substance: recombinant native MCP-2 (from UniProt P80075 24-99) (ligand)
- EC50, activity (partial agonist) in an Aequorin assay [7]: 23.5 nM
